Here are results for 30 sequences from the supplement of paper PMC9170038.

The subject of this data set is MS2 coat protein. The experiment in a line: apparent KD of MS2 coat protein; designed switch direction (-1 OFF switch, 1 ON switch): -1; higher = weaker reporter binding. In a few lines: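 On Illumina chips, designed RNA switches with common flanks were made by stalled E. coli RNA polymerase. Titrations with SNAP-549-labelled MS2 coat protein, doubling from 0.7 or 1.5 nM to 3 µM, were done with no input, with 200 uM small-molecule ligand, or with an oligonucleotide input. Apparent KD is the median per design over clusters, from curve fits of normalised cluster fluorescence.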

Setting [1] is: Eterna round: R95, input ligand: microRNA oligo, concentration not stated.
Where [2] appears, read: input ligand: microRNA oligo, concentration not stated.
The mark [3] stands for this setting: Eterna round: R95, input ligand: FMN 200 uM.
[4] abbreviates: Eterna round: R95, input ligand: none.

Consider “GUUAACGAUGAGGAUAUAUGAUAUCAAAGCAUCAUAGAAGGCAUCACAUGAGGAUCACCCAUGUGAUCUUCUUG [Mat - Exclusion 6 - JL Mod - D27] (Eterna round: R97, puzzle: Exclusion 6)”, for which the “apparent KD of MS2 coat protein” value is, setting by setting: (input ligand: FMN 200 uM) 120 nM; (input ligand: none) 29.4 nM.
Taken in the same sequence, the figures for “GUUAACGUAGGAUAUUAGUACAUGAACAUGAGGAUCACCCAUGUGAGGUGGGUCUAAGAAUAAGAAGGGCGAAGAA [EX5 #26] (Eterna round: R97, puzzle: Exclusion 5)” were 317 nM and 312 nM.
Consider “GUUACACAUGAGGAUCACCCAUGUAAGGAUAUGCUGCGGUCGCGCUGACGUGACUGCAGCAGAAGGUACAAAUG [Mat - Mod of JL D56] (puzzle: Exclusion 1)”, for which the “apparent KD of MS2 coat protein” value under setting [1] is 59.3 nM.
In the case of “GUUAUGUCAGGAUAUGCUAAUGAUGAGUGCUCAGACAUGAUGCAGAAGGGACAUGAGGAUCACCCAUGUACUAA [EX4 #11] (Eterna round: R97, puzzle: Exclusion 4)”, the “apparent KD of MS2 coat protein” value reads like this: (input ligand: FMN 200 uM) 116 nM; (input ligand: none) 36.1 nM.
The corresponding values for “GUUCUUCCUGUAAGGAUAUCCAUGUGUCGGUUUAUGGAGAAGGUACAUGAGGAUCACCCAUGUCACCCGCGUUA (Eterna round: R97, puzzle: Brourd's mod of Exclusion 4)” are 45.9 nM and 18.5 nM.
Regarding “GUUGCGUUUGUGAGGAUAUGCUGGUCCUUGGUUCGGCAGAAGGCACAUGAGGAUCACCCAUGUGGUGUCGUUCC [salish99_Bmod_ex4_051] (puzzle: Brourd's mod of Exclusion 4)”, the “apparent KD of MS2 coat protein” value under setting [1] came to 13.3 nM.
On the same count and under the same terms, the value for “GUUGCGUUUGUGAGGAUAUGCUGGUCCUUGGUUCGGCAGAAGGCACAUGAGGAUCACCCAUGUGGUGUUGUUCC [salish99_Bmod_ex4_052] (puzzle: Brourd's mod of Exclusion 4)” was 90.5 nM.
“GUUGUGUAAGGAUAUGCCUGGCCGUGAGGCCAGAUUGAGUGGCAGAAGGUACAUGAGGAUCACCCAUGUACGGG [salish99_ex4_4_003] (Eterna round: R97, puzzle: Exclusion 4)”: the “apparent KD of MS2 coat protein” value by setting is: (input ligand: FMN 200 uM) 145 nM; (input ligand: none) 26.8 nM.
In the case of “GUUGUUUAUGUAGGAUAUGCAAGGCGAGCCUAAGCAGAAGGACAUGAGGAUCACCCAUGUAUUGCGGUCUGCGUUCAGAUCGCU [salish99_ExNG1_r4_015] (Eterna round: R96, puzzle: Exclusion NG 1)”, the “apparent KD of MS2 coat protein” value is, setting by setting: (input ligand: FMN 200 uM) 164 nM; under setting [2], 17.3 nM; (input ligand: none) 25.9 nM.
The corresponding values for “GUUGUUUAUGUAGGAUAUGCCUGGCGUGCCUUUGCAGAAGGACAUGAGGAUCACCCAUGUAACAUGAGGCUCACCCAUGUCGCG [salish99_ExNG1_r04_109] (Eterna round: R96, puzzle: Exclusion NG 1)” are 438 nM, 185 nM and 277 nM.
In the case of “GUUUCACAUGAGGAUCACCCAUGUGAGGAUAUAGAUUUGUUAGUCGUAAUUGAUAGAUUUAGAAGGCGCGUGAU [JR_Exc1_Sub002] (Eterna round: R97, puzzle: Exclusion 1)”, the “apparent KD of MS2 coat protein” value by setting is: (input ligand: FMN 200 uM) 27.4 nM; (input ligand: none) 25.2 nM.
For “UAACACCGAGGAUAUACAUUUCUCAUAAGGUGCAAAACCGCACAUGAGGAUCACCCAUGUAGAAGGCGGCAAAU [Enrabeange] (puzzle: Exclusion 2)”, the “apparent KD of MS2 coat protein” value under setting [3] is 32 nM, the “apparent KD of MS2 coat protein” value under setting [1] turned out to be 10.5 nM and the “apparent KD of MS2 coat protein” value under setting [4] worked out at 14.8 nM.
In the case of “UAACAUGUACAAGGAUAUCAGCACGUUUAGUGCUGAGAAGGUGUAACAUGAGGAUCACCCAUGUAGAUCAUUAAUUAAUUAAUU [ENG1/9-B2] (Eterna round: R96, puzzle: Exclusion NG 1)”, the “apparent KD of MS2 coat protein” value (input ligand: FMN 200 uM) was 244 nM, the “apparent KD of MS2 coat protein” value under setting [2] is 120 nM and the “apparent KD of MS2 coat protein” value (input ligand: none) came to 102 nM.
For “UAAGAGUGAGGAUAUACGUCGCUGGUCUGGAUGGACGCAUGACAUGAGGAUCACCCAUGUAGAAGGCACAAAAC [Enxela Mod 11 - Jieux - Exclusion 2] (Eterna round: R97, puzzle: Exclusion 2)”, the “apparent KD of MS2 coat protein” value is, setting by setting: (input ligand: FMN 200 uM) 153 nM; (input ligand: none) 35 nM.
On to “UAAGAUUAUUGAGGAUAUGGUAAUUUUUAUUAACCAGAAGGCAAACUCAACAUGAGGAUCACCCAUGUAUAAAGGGUAUUAGUU [JR_ExcNG1_Sub096] (Eterna round: R96, puzzle: Exclusion NG 1)”, for which the “apparent KD of MS2 coat protein” value under setting [2] turned out to be 51.2 nM.
With “UAAGGGUGCGUAGGAUAUCGCGGCCGAAUAAAGCGAGAAGGACGCCCGAAUGGGUCGUCCAACAUGAGGAUCACCCAUGUAAAC [Soerre] (Eterna round: R96, puzzle: Exclusion NG 1)”, the “apparent KD of MS2 coat protein” value reads like this: (input ligand: FMN 200 uM) 140 nM; under setting [2], 36.5 nM; (input ligand: none) 50.2 nM.
Regarding “UAAGUGUGAGGAUAUGGUAAAGAUAAGAUGAUGAAAGAACUCCAGAAGGCACAUGAGGAUCACCCAUGUAGAUG [JL-ex4-2.11 Jieux mod] (puzzle: Exclusion 4)”, the “apparent KD of MS2 coat protein” value under setting [1] was 35.3 nM.
As to “UAAUAAAGUGUGAGGAUAUGCUGGUCCAUAGAUCAGCAGAAGGCACAUGAGGAUCACCCAUGUAAUAUAUAAAU [Mat - Exclusion 4 - JL Mod - D57] (Eterna round: R96, puzzle: Brourd's mod of Exclusion 4)”, the “apparent KD of MS2 coat protein” value under setting [2] amounted to 23.7 nM.
“UAAUAAAGUGUGAGGAUAUGCUGGUCCAUAGAUCAGCAGAAGGCACAUGAGGAUCACCCAUGUAAUAUAUAAAU [Mat - Exclusion 4 - JL Mod - D57] (puzzle: Brourd's mod of Exclusion 4)”: the “apparent KD of MS2 coat protein” value by setting is: under setting [3], 199 nM; under setting [1], 27.5 nM; under setting [4], 24.5 nM.
Taken in the same sequence, the figures for “UAAUAACAAGCGAGAUCCUACAUGAGGAUCACCCAUGUGCUCGUCUUAUAAAGUACUAUCACGAAAGUGAUAGUACA [Mat - Sensor v3 - turn-off var 1 - Eli Mod - D61] (puzzle: Sensor v3, turn-off variant 1)” were 17.1 nM, 49.5 nM and 19.2 nM.
As for “UAAUAAUAGUGAGGAUAUAGUUAUUAUAAUAUACUAGAAGGUACACAUGAGGAUCACCCAUGUUUUAUAAUUUGUAAUUUAAAU [4th something] (Eterna round: R96, puzzle: Exclusion NG 1)”, the “apparent KD of MS2 coat protein” value under setting [2] came to 18.4 nM.
Turning to “UAAUACAAGCAAAGAUCUUACAUGAGGAUCACCCAUGUGCUCGUCUUAUAAAGUACUAUCACGAAAGUGAUAGUACU [Mat - Sensor v3 - turn-off var 1 - Eli Mod - D94] (puzzle: Sensor v3, turn-off variant 1)”, the “apparent KD of MS2 coat protein” value is 29.3 nM under setting [3], 202 nM under setting [1] and 34.6 nM under setting [4].
In the case of “UAAUAUCUGAUUCUUGAGAUACAUGAGGAUCACCCAUGUUCACAGGAUAUUGAUUUUAAGAAAAGCAAGAAGGGUGAAUCAUUU [JR_ExcNG3_Sub041] (Eterna round: R96, puzzle: Exclusion NG 3)”, the “apparent KD of MS2 coat protein” value runs as follows: (input ligand: FMN 200 uM) 26.9 nM; under setting [2], 16.5 nM; (input ligand: none) 22.9 nM.
For the sequence “UAAUGUAUAUAGGAUAUCUAGCUGGAUACAGCUAGAGAAGGAUGUACAUGAGGAUCACCCAUGUAAAUCAGUGA [Ex6/14-B3] (Eterna round: R97, puzzle: Exclusion 6)”, the “apparent KD of MS2 coat protein” value worked out at 206 nM (input ligand: FMN 200 uM) and 39.3 nM (input ligand: none).
For the sequence “UAAUUCGUAGGAUAUACAAAGGGAGAAUGAUUGCGGUCCUGACAUGAGGAUCACCCAUGUAGAAGGAUGAGGGU [Eternabot (L1) Solution 41] (Eterna round: R97, puzzle: Exclusion 2)”, the “apparent KD of MS2 coat protein” value (input ligand: FMN 200 uM) was 91.9 nM and the “apparent KD of MS2 coat protein” value (input ligand: none) is 88.6 nM.
Taken in the same sequence, the figures for “UACACCACAUGAGGAUCAAACAUGAGGAUCACCCAUGUAUAACAAGCUUUUUGCUCGUCUUAUAAAUAUGUGGUGUA [Electric Eye 5 - Jieux - Sensor, turn-off variant 1] (Eterna round: R97, puzzle: Sensor, turn-off variant 1)” were 14.2 nM and 14.5 nM.
The corresponding values for “UACACGGGAGGAUAUACGUAGAUGCAGGUUCGUGUGGUGCUACAUGAGGAUCACCCAUGUAGAAGGCCCAACGU [Mod 4 R3 JL-ex2-2.29] (Eterna round: R97, puzzle: Exclusion 2)” are 26.3 nM and 23.4 nM.
Taken in the same sequence, the figures for “UACACGGUAGGAUAUACGUAGAUGCAGGUUCGUGUGGUGCUACAUGAGGAUCACCCAUGUAGAAGGGCCAACGU [Mod 6 R3 JL-ex2-2.29 - Jieux - Exclusion 2] (Eterna round: R97, puzzle: Exclusion 2)” were 15.1 nM and 13.1 nM.
With “UACACUGCAUGAGGAUCAAACAUGAGGAUCACCCAUGUAUAGCAAGCUUUUUGCACGUCUUAUAAUUAUGUAGUGUA [Electric Eye 13 - Jieux - Sensor, turn-off variant 1] (Eterna round: R97, puzzle: Sensor, turn-off variant 1)”, the “apparent KD of MS2 coat protein” value was found to be 15.1 nM (input ligand: FMN 200 uM) and 16.2 nM (input ligand: none).
On to “UACAUGAGGAUCACCCAUGUUUUGUCGUGUAUGGUAUUUAUCUAGGAUAUCAAGUUAUUUAUUUAUGAGAAGGAGAAUAUUAAU [JMF's solution 10] (Eterna round: R96, puzzle: Exclusion NG 3)”, for which the “apparent KD of MS2 coat protein” value turned out to be 40 nM (input ligand: FMN 200 uM), 30.7 nM under setting [2] and 37.3 nM (input ligand: none).
